One block for each binder: values may come before it.
Columns and labels:
Assay in all cases: holdup assay
Parameters in all cases: key: below the threshold = too weak to quantify, mostly under pKd 3.1 to 4
Conditions in all cases: plain residues with an end cap or a label only (N-terminal biotin on a linker: ado-ado)
DLG4_2, P78352 = target: DLG4_2, P78352
DLG1_3, Q12959 = target: DLG1_3, Q12959
PDZRN4_1, Q6ZMN7 = target: PDZRN4_1, Q6ZMN7
MPP2, Q14168 = target: T1, MPP2, Q14168
T1 sequence (Q14168 180-250, limits assumed, looked up): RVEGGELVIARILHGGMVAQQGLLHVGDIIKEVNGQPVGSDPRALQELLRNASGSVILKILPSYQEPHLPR

SNTB1, Q13884 = target: T2, SNTB1, Q13884
T2 sequence (Q13884 107-205, limits assumed, looked up): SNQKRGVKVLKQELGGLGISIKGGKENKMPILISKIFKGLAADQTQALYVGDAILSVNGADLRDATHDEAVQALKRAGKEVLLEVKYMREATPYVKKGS

TX1BP3, O14907 = target: T3, TX1BP3, O14907
T3 sequence (O14907 10-122, limits assumed, looked up): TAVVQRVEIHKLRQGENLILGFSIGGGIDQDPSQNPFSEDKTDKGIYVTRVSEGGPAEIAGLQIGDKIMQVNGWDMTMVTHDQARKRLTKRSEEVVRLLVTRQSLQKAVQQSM

PICK1, Q9NRD5 = target: PICK1, Q9NRD5
Sequence of PICK1, Q9NRD5 (Q9NRD5 17-115): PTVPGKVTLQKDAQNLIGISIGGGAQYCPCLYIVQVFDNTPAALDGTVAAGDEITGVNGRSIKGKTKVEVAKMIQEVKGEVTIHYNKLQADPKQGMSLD

APBA1_1, Q02410 = target: T4, APBA1_1, Q02410
T4 sequence (Q02410 651-752, limits assumed, looked up): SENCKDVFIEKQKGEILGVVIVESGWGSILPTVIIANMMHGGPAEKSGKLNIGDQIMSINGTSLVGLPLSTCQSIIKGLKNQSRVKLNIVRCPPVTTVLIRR

DLG2_3, Q15700 = target: DLG2_3, Q15700
MAGI3_2, Q5TCQ9 = target: MAGI3_2, Q5TCQ9
Sequence of MAGI3_2, Q5TCQ9 (Q5TCQ9 398-503): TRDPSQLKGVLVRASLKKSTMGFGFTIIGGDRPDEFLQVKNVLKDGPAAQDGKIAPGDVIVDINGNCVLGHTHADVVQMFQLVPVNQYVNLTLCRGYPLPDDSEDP

LNX2_2, Q8N448 = target: T5, LNX2_2, Q8N448
T5 sequence (Q8N448 334-432, limits assumed, looked up): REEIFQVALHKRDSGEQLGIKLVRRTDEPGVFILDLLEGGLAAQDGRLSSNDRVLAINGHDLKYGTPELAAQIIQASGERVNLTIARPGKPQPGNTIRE

Inadl_10, Q8NI35 = target: Inadl_10, Q8NI35
Sequence of Inadl_10, Q8NI35 (Q8NI35 1673-1763): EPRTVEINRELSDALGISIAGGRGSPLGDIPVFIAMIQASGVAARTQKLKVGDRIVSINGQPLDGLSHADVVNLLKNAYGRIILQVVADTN

LAP2, Q96RT1 = target: LAP2, Q96RT1
Sequence of LAP2, Q96RT1 (Q96RT1 other isoform, or with tags, fused parts or gaps): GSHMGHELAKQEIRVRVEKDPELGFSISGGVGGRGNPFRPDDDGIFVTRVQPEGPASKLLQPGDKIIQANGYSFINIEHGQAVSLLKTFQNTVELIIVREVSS

DLG1_1, Q12959 = target: DLG1_1, Q12959
GRIP1_2, Q9Y3R0 = target: T6, GRIP1_2, Q9Y3R0
T6 sequence (Q9Y3R0 145-248, limits assumed, looked up): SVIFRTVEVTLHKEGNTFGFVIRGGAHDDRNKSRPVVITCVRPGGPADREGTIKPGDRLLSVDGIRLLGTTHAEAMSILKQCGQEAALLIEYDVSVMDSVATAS

RADIL, Q96JH8 = target: T7, RADIL, Q96JH8
T7 sequence (Q96JH8 971-1071, limits assumed, looked up): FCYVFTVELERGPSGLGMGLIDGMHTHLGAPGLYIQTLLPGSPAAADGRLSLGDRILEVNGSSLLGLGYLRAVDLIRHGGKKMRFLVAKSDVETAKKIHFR

ARHGEF11, O15085 = target: T8, ARHGEF11, O15085
T8 sequence (O15085 42-136, limits assumed, looked up): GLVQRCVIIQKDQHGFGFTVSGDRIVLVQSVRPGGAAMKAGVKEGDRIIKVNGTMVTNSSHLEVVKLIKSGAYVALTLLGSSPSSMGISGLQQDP

TJP2_1, Q9UDY2 = target: TJP2_1, Q9UDY2
Sequence of TJP2_1, Q9UDY2 (Q9UDY2 24-128): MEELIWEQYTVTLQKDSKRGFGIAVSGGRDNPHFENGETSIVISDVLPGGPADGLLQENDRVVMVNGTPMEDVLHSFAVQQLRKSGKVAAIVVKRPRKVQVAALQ

AHNAK1, Q09666 = target: AHNAK1, Q09666
MPDZ_5, O75970 = target: T9, MPDZ_5, O75970
T9 sequence (O75970 695-796, limits assumed, looked up): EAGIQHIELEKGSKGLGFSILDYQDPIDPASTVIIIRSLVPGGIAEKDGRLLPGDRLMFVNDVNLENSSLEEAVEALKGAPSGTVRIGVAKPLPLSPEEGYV

DLG3_1, Q92796 = target: T10, DLG3_1, Q92796
T10 sequence (Q92796 125-227, limits assumed, looked up): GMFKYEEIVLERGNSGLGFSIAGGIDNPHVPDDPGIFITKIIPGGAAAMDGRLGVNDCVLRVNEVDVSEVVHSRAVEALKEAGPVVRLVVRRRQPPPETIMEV

CARD11, Q9BXL7 = target: T11, CARD11, Q9BXL7
T11 sequence (Q9BXL7 662-765, limits assumed, looked up): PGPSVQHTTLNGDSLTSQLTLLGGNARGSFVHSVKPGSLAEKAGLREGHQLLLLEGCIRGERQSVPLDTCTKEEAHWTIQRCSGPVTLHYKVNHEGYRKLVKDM

APBA2_2, Q99767 = target: T12, APBA2_2, Q99767
T12 sequence (Q99767 654-744, limits assumed, looked up): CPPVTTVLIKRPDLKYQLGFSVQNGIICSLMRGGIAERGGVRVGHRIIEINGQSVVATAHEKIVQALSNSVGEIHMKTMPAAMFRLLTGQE

LNX1_2, Q8TBB1 = target: LNX1_2, Q8TBB1
Sequence of LNX1_2, Q8TBB1 (Q8TBB1 371-470): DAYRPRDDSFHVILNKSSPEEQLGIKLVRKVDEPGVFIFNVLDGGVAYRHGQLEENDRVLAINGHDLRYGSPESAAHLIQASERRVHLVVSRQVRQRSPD

MAGI2_4, Q86UL8 = target: MAGI2_4, Q86UL8
Sequence of MAGI2_4, Q86UL8 (Q86UL8 772-865): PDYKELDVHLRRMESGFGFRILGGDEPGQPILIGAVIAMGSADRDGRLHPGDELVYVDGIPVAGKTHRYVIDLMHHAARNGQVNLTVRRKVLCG

TJP1_2, Q07157 = target: TJP1_2, Q07157
Sequence of TJP1_2, Q07157 (Q07157 181-274): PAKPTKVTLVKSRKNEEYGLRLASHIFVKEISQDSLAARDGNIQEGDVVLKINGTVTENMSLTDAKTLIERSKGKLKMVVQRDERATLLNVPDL

Sequence of PDZRN4_1, Q6ZMN7 (Q6ZMN7 213-318): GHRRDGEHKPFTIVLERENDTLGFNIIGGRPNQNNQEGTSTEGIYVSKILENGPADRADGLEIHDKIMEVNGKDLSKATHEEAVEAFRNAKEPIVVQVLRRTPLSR
Sequence of DLG4_2, P78352 (P78352 155-259): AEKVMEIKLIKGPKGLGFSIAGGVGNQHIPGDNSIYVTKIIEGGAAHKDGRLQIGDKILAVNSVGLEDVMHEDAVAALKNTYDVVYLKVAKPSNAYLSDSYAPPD

pKd (DLG4_2, P78352): below the threshold | pKd (DLG1_3, Q12959): below the threshold | pKd (PDZRN4_1, Q6ZMN7): below the threshold | pKd (MPP2, Q14168): below the threshold | pKd (SNTB1, Q13884): below the threshold | pKd (TX1BP3, O14907): below the threshold | pKd (PICK1, Q9NRD5): 4.26 | pKd (APBA1_1, Q02410): below the threshold | pKd (DLG2_3, Q15700): below the threshold | pKd (MAGI3_2, Q5TCQ9): below the threshold | pKd (LNX2_2, Q8N448): 4.62 | pKd (Inadl_10, Q8NI35): below the threshold | pKd (LAP2, Q96RT1): below the threshold | pKd (DLG1_1, Q12959): below the threshold | pKd (GRIP1_2, Q9Y3R0): below the threshold | pKd (RADIL, Q96JH8): 5.24 | pKd (ARHGEF11, O15085): below the threshold | pKd (TJP2_1, Q9UDY2): below the threshold | pKd (AHNAK1, Q09666): below the threshold | pKd (MPDZ_5, O75970): below the threshold | pKd (DLG3_1, Q92796): below the threshold | pKd (CARD11, Q9BXL7): below the threshold | pKd (APBA2_2, Q99767): below the threshold
B1: PDLIM4_iso2, P50479;P50479-1 (peptide)
chain: VYPNAKVELV

pKd (LNX1_2, Q8TBB1): 4.23 | pKd (MPP2, Q14168): below the threshold | pKd (SNTB1, Q13884): below the threshold | pKd (PICK1, Q9NRD5): below the threshold | pKd (APBA1_1, Q02410): below the threshold | pKd (DLG2_3, Q15700): below the threshold | pKd (LNX2_2, Q8N448): 5.19 | pKd (Inadl_10, Q8NI35): below the threshold | pKd (LAP2, Q96RT1): below the threshold | pKd (DLG1_1, Q12959): below the threshold | pKd (GRIP1_2, Q9Y3R0): below the threshold | pKd (RADIL, Q96JH8): 4.46 | pKd (TJP2_1, Q9UDY2): below the threshold | pKd (AHNAK1, Q09666): below the threshold | pKd (MPDZ_5, O75970): below the threshold | pKd (CARD11, Q9BXL7): below the threshold | pKd (APBA2_2, Q99767): below the threshold
B2: TRIM29, Q14134;Q14134-2 (peptide)
chain: KSGKQTMLVV

pKd (LNX1_2, Q8TBB1): below the threshold | pKd (DLG4_2, P78352): below the threshold | pKd (DLG1_3, Q12959): below the threshold | pKd (PDZRN4_1, Q6ZMN7): below the threshold | pKd (MPP2, Q14168): below the threshold | pKd (SNTB1, Q13884): below the threshold | pKd (TX1BP3, O14907): 3.94 | pKd (PICK1, Q9NRD5): below the threshold | pKd (MAGI2_4, Q86UL8): below the threshold | pKd (APBA1_1, Q02410): below the threshold | pKd (MAGI3_2, Q5TCQ9): below the threshold | pKd (LNX2_2, Q8N448): below the threshold | pKd (Inadl_10, Q8NI35): below the threshold | pKd (DLG1_1, Q12959): below the threshold | pKd (GRIP1_2, Q9Y3R0): below the threshold | pKd (RADIL, Q96JH8): below the threshold | pKd (TJP1_2, Q07157): below the threshold | pKd (ARHGEF11, O15085): 4.55 | pKd (TJP2_1, Q9UDY2): below the threshold | pKd (AHNAK1, Q09666): below the threshold | pKd (MPDZ_5, O75970): below the threshold | pKd (DLG3_1, Q92796): below the threshold | pKd (CARD11, Q9BXL7): below the threshold | pKd (APBA2_2, Q99767): below the threshold
B3: ATP2A2, P16615;P16615-3 (peptide)
chain: YLEPVLSSEL

pKd (LNX1_2, Q8TBB1): below the threshold | pKd (DLG4_2, P78352): below the threshold | pKd (DLG1_3, Q12959): below the threshold | pKd (PDZRN4_1, Q6ZMN7): 4.2 | pKd (MPP2, Q14168): below the threshold | pKd (SNTB1, Q13884): below the threshold | pKd (TX1BP3, O14907): below the threshold | pKd (PICK1, Q9NRD5): 4.19 | pKd (MAGI2_4, Q86UL8): below the threshold | pKd (APBA1_1, Q02410): below the threshold | pKd (DLG2_3, Q15700): below the threshold | pKd (LNX2_2, Q8N448): below the threshold | pKd (Inadl_10, Q8NI35): below the threshold | pKd (LAP2, Q96RT1): below the threshold | pKd (DLG1_1, Q12959): below the threshold | pKd (GRIP1_2, Q9Y3R0): below the threshold | pKd (RADIL, Q96JH8): below the threshold | pKd (TJP1_2, Q07157): below the threshold | pKd (ARHGEF11, O15085): 4.11 | pKd (AHNAK1, Q09666): below the threshold | pKd (MPDZ_5, O75970): below the threshold | pKd (DLG3_1, Q92796): below the threshold | pKd (CARD11, Q9BXL7): below the threshold | pKd (APBA2_2, Q99767): below the threshold
B4: SLC34A1, Q06495;Q06495-1 (peptide)
chain: LPAHHNATRL

Source: PMC9482650, “Quantitative fragmentomics allow affinity mapping of interactomes” (Nature Communications, 2022)
